Reference: patent US12251377B2, “Anticoagulant compositions and uses thereof” (University of Rochester, priority 2019, dated 2025)

How the values were obtained:
[1] = tested on: coagulation of human blood; test: Cardiopulmonary bypass circuit simulation (arterio-venous loop); format: biochemical; settings: whole duration of the bypass circuit experiment, 37° C.
Experimental: (§1) In the examples below, studies were carried out to examine effects of dabigatran on coagulation of human blood. The studies were approved by the Institutional Review Board (University of Rochester RSRB, Rochester, NY) and informed consent was obtained from all subjects. Six healthy non-pregnant donors between 18-70 years old were recruited for the study. Subjects were excluded from the recent infections, disorders of immune system, hematological disorders including prior history of clotting issues, malignancies. Current medications and herbal supplements were recorded. Standard phlebotomy procedures performed by trained personal were used to collect no more than 250 ml of whole blood in two months. The collected blood was anticoagulated with 0.109 M Na citrate and tested within four hours. Dabigatran was purchased from CLEARSYNTH (Ontario, Canada). The study was initiated in three steps: Effect of high-dose Dabigatran on coagulation of human blood in-vitro; Evaluation of the anticoagulant effect of Dabigatran in the Chandler Loop System; and Anticoagulation effect of Dabigatran in the Cardiopulmonary bypass circuit simulation. […]

[2] = cited from earlier work
[3] = tested on: coagulation of human blood; test: Thromboelastography, TEG 5000 rapid TEG test, clotting/reactive time (R); format: biochemical; settings: human blood in vitro
Experimental: In the examples below, studies were carried out to examine effects of dabigatran on coagulation of human blood. The studies were approved by the Institutional Review Board (University of Rochester RSRB, Rochester, NY) and informed consent was obtained from all subjects. Six healthy non-pregnant donors between 18-70 years old were recruited for the study. Subjects were excluded from the recent infections, disorders of immune system, hematological disorders including prior history of clotting issues, malignancies. Current medications and herbal supplements were recorded. Standard phlebotomy procedures performed by trained personal were used to collect no more than 250 ml of whole blood in two months. […]
Methods: Dabigatran (CLEARSYNTH, Catalog No. CS-O-03403; CAS number 211914-51-1) was initially dissolved in 0.1M HCL to 16.6 mg/ml, followed by diluting to 240 μg/ml, using 50% DMSO. […] TEG 5000 (rapid TEG test) and ROTEM (ex-tem test) were used to measure anticoagulation and the corresponding reactive time (R) and coagulation time (CT) were recorded.
(§2) Methods: Dabigatran was initially dissolved in 0.1 M HCL, followed by diluting 1:1 with DMSO/H2O to prepare four stock solutions: […]. […] Blood clotting was monitored for 120 minutes. […]
Each of the dabibatran-containing blood sample described above was examined for clotting time R measured by TEG in the manner described above.

[4] = tested on: coagulation of human blood; test: Chandler Loop System, clot formation in circulating blood; format: biochemical; settings: Idarucizumab added after 2 hours of circulation; immediate clotting of the blood in the loop
Experimental: as §1, §2

plasma levels of Dabigatran during the experimental procedure (Mass Spectrometry) [1]	Molecule	normal concentrations found in patients [2]	reversal of the anticoagulation effect of Dabigatran ([3]; 125 μg/ml Idarucizumab)	Idarucizumab concentration required to reverse the highest concentrations of Dabigatran ([3]; highest Dabigatran concentrations)	reversal of the anticoagulation action of Dabigatran in the Chandler loop [4]
remain stable	[H]/N=C(/N)c1ccc(NCc2nc3cc(C(=O)N(CCC(=O)O)c4ccccn4)ccc3n2C)cc1 [Dabigatran]	180 ng/mL	–	–	–
–	Idarucizumab: anti-dabigatran antibody, reversal agent (antibody, chains of the INN, looked up, V domains shown, Fab, anti-dabigatran antibody, reversal agent) VH: QVQLQESGPGLVKPSETLSLTCTVSGFSLTSYIVDWIRQPPGKGLEWIGVIWAGGSTGYNSALRSRVSITKDTSKNQFSLKLSSVTAADTAVYYCASAAYYSYYNYDGFAYWGQGTLVTVSS VL: DVVMTQSPLSLPVTLGQPASISCKSSQSLLYTDGKTYLYWFLQRPGQSPRRLIYLVSKLDSGVPDRFSGSGSGTDFTLKISRVEAEDVGVYYCLQSTHFPHTFGGGTKVEIK	–	successfully reversed	2-4 times normal plasma concentrations	effectively reversed
